167 variants from the Human Domainome abundance scans (Beltran et al. 2025) can be followed below.

To fix the notation:
B1: 3'-5' exoribonuclease 1, residues 65 to 114; numbered along this chain, Q8IV48 (parent)
chain: VYKEIAITNGCINRMSKEELRAKLSEFKLETRGVKDVLKKRLKNYYKKQK

± gives the uncertainty stated by the source.

In the series the parent is B1. The series is described as follows: abundance fitness (aPCA) (normalised: wild type 0, dead -1); higher = more abundant; growth selection in yeast, the domain comes from the species named. Conditions: Homo sapiens.
With Y2W, the abundance fitness is -0.069 ± 0.083.
With Y2F, the abundance fitness was -0.053 ± 0.054.
With Y2L, the abundance fitness was -0.052 ± 0.043.
With Y2I, the abundance fitness is 0.004 ± 0.052.
Regarding E18M, the abundance fitness amounted to 0.012 ± 0.055.
As to E18C, the abundance fitness is 0.072 ± 0.047.
The figure for E18W is -0.131 ± 0.049; for E18I it is -0.003 ± 0.062; for E18V it is 0.058 ± 0.037.
In the case of E18G it was -0.023 ± 0.035; in that of E18S, 0.038 ± 0.039; in that of E19N, -0.299 ± 0.061.
On to E19F, for which the abundance fitness was -0.784 ± 0.075.
The figure for E19R is -0.438 ± 0.042; for E19G it is -0.375 ± 0.04.
The figure for K40L is -0.608 ± 0.037.
In the case of K40P it was -0.951 ± 0.068; in that of K40I, -0.819 ± 0.07.
As for K40H, the abundance fitness was -0.576 ± 0.056.
In the case of K40A it was -0.427 ± 0.038.
For K40C, the abundance fitness is -0.705 ± 0.052.
In the case of K40F it was -0.992 ± 0.073; in that of L29C, -0.256 ± 0.041; in that of L29M, -0.198 ± 0.051.
The figure for L29T is -0.884 ± 0.048; for L29Q it is -0.196 ± 0.05.
In the case of L29A it was -0.827 ± 0.044; in that of L29E, -0.737 ± 0.068.
As to I12K, the abundance fitness was -0.741 ± 0.068.
In the case of I12Q it was -0.899 ± 0.066; in that of I12C, -0.721 ± 0.056; in that of I12T, -0.457 ± 0.046.
The figure for I12R is -0.738 ± 0.042; for I12F it is -0.693 ± 0.048.
On to I7W, for which the abundance fitness was -0.287 ± 0.037.
I7H: the abundance fitness is -0.166 ± 0.057.
In the case of I7C it was -0.164 ± 0.039; in that of I7D, -0.171 ± 0.051; in that of I7F, -0.198 ± 0.047.
Consider I7S, for which the abundance fitness was -0.142 ± 0.037.
In the case of I7K it was -0.131 ± 0.049; in that of I7E, -0.175 ± 0.051.
The figure for I7G is -0.13 ± 0.034.
In the case of G10A it was -0.118 ± 0.035.
With G10T, the abundance fitness was -0.121 ± 0.043.
Turning to G10R, the abundance fitness is -0.248 ± 0.035.
On to G10Q, for which the abundance fitness was -0.125 ± 0.045.
Take G10H: the abundance fitness is -0.18 ± 0.053.
In the case of G10S it was -0.146 ± 0.033.
In the case of G10C it was -0.23 ± 0.04.
As to G10L, the abundance fitness was -0.37 ± 0.034.
D36M: the abundance fitness is -0.27 ± 0.048.
In the case of D36T it was -0.042 ± 0.037; in that of D36S, 0.048 ± 0.032; in that of D36K, 0.044 ± 0.054.
In the case of V1W it was -0.102 ± 0.074; in that of V1N, 0.093 ± 0.15; in that of V1K, -0.043 ± 0.43.
In the case of V1Q it was -0.369 ± 0.15; in that of C11K, -0.039 ± 0.049; in that of C11D, 0.067 ± 0.048.
In the case of C11S, the abundance fitness was 0.012 ± 0.037.
On to C11F, for which the abundance fitness was -0.104 ± 0.044.
The figure for C11T is 0.005 ± 0.044; for C11P it is -0.278 ± 0.047; for C11M it is 0.057 ± 0.046.
Take R14W: the abundance fitness is -0.941 ± 0.053.
With R14G, the abundance fitness was -0.15 ± 0.035.
The figure for R14Q is -0.072 ± 0.048; for R14A it is -0.115 ± 0.035; for R21L it is -0.528 ± 0.039.
The figure for R21V is -0.203 ± 0.038.
The figure for R21C is -0.474 ± 0.049; for R21W it is -0.833 ± 0.051.
As for R21F, the abundance fitness was -0.688 ± 0.062.
The figure for S25N is -0.038 ± 0.063.
The figure for S25F is -0.104 ± 0.044; for S25G it is -0.039 ± 0.037.
The figure for S25C is -0.121 ± 0.052; for S25D it is -0.096 ± 0.056.
As to S25M, the abundance fitness was -0.1 ± 0.049.
Consider E4L, for which the abundance fitness is -0.334 ± 0.041.
On to E4G, for which the abundance fitness is -0.093 ± 0.036.
For E4F, the abundance fitness was -0.214 ± 0.058.
The figure for E4N is -0.057 ± 0.056; for V37C it is -0.191 ± 0.078; for V37E it is -0.096 ± 0.098.
The figure for V37H is -0.695 ± 0.069; for V37R it is -0.124 ± 0.066; for V37Y it is -0.853 ± 0.095.
Y45L: the abundance fitness is -0.637 ± 0.045.
In the case of Y45R it was -0.878 ± 0.051; in that of Y45M, -0.643 ± 0.059.
In the case of Y45P it was -0.995 ± 0.087.
With Y45Q, the abundance fitness was -0.876 ± 0.081.
In the case of L24C it was -0.052 ± 0.049.
The figure for L24I is -0.88 ± 0.13; for L24W it is -0.902 ± 0.043.
In the case of L24P it was -0.984 ± 0.072; in that of L24S, -0.488 ± 0.044.
In the case of L24Q, the abundance fitness is -0.927 ± 0.069.
The figure for K28T is -0.338 ± 0.06.
In the case of K28C it was -0.127 ± 0.053; in that of K28G, 0.038 ± 0.043.
In the case of K28H it was -0.057 ± 0.06.
With K28P, the abundance fitness was -0.963 ± 0.083.
The figure for K28F is -0.407 ± 0.083.
Take K28A: the abundance fitness was -0.141 ± 0.054.
The figure for K28R is -0.061 ± 0.036; for K17R it is -0.203 ± 0.07.
In the case of K17D it was -0.759 ± 0.12; in that of K17S, -0.34 ± 0.051.
Take K17Y: the abundance fitness is -0.651 ± 0.087.
On to K17H, for which the abundance fitness was -0.591 ± 0.083.
In the case of K17C it was -0.113 ± 0.086.
In the case of K17G it was -0.603 ± 0.094; in that of K17T, -0.366 ± 0.056.
The figure for K17A is -0.209 ± 0.076; for K39V it is -0.196 ± 0.063; for K39W it is -1.04 ± 0.2.
Consider K39A, for which the abundance fitness is -0.36 ± 0.051.
The figure for K39E is -0.939 ± 0.14; for K39Q it is -0.398 ± 0.089.
In the case of K39G it was -0.721 ± 0.1.
In the case of V34Q it was -0.241 ± 0.1; in that of V34E, -0.553 ± 0.11.
Consider V34W, for which the abundance fitness was -0.352 ± 0.077.
On to V34F, for which the abundance fitness is -0.245 ± 0.048.
In the case of V34Y it was -0.244 ± 0.057; in that of G33I, -0.97 ± 0.053.
The figure for G33A is -0.842 ± 0.047; for G33K it is -0.93 ± 0.09.
In the case of G33H it was -0.875 ± 0.057; in that of G33D, -0.663 ± 0.046; in that of G33C, -0.608 ± 0.045.
On to K23E, for which the abundance fitness was -0.56 ± 0.048.
In the case of K23H it was -0.154 ± 0.062.
In the case of K23W it was -0.234 ± 0.044; in that of K23C, -0.158 ± 0.057; in that of K48I, -0.611 ± 0.085.
The figure for K48M is -0.22 ± 0.057.
On to K48G, for which the abundance fitness is -0.25 ± 0.035.
The figure for K48Y is -0.279 ± 0.059; for K48S it is -0.158 ± 0.041; for S16M it is -1.08 ± 0.26.
The figure for S16N is -0.041 ± 0.078; for S16K it is -0.026 ± 0.12.
In the case of S16G it was -0.425 ± 0.078; in that of S16W, -1.19 ± 0.29.
In the case of S16V, the abundance fitness is -0.753 ± 0.081.
In the case of S16Q it was -0.54 ± 0.11; in that of S16F, -0.701 ± 0.043.
In the case of N13Q it was -0.629 ± 0.051; in that of N13V, -0.764 ± 0.041.
In the case of M15G it was -0.975 ± 0.12; in that of M15P, -1 ± 0.092; in that of M15R, -0.718 ± 0.081.
As to M15L, the abundance fitness was -0.317 ± 0.046.
For the variant M15F, the abundance fitness is -0.544 ± 0.052.
The figure for T31R is -0.327 ± 0.042; for T31K it is -0.05 ± 0.054.
T31S: the abundance fitness is -0.088 ± 0.033.
The figure for L38P is -0.968 ± 0.072.
The figure for L38G is -1.09 ± 0.1.
With L38T, the abundance fitness is -0.993 ± 0.065.
The figure for L38H is -1.02 ± 0.076; for L38E it is -0.933 ± 0.2.
